molecular target: HLA-A*02:01 (human); test: UV peptide exchange; HLA class I ELISA; details: remark: other sources report otherwise

| Binder | exchange rate with Pos | Average % | Exch I (%) | Exch II (%) |
| --- | --- | --- | --- | --- |
| RAKCKFSIL (here or on the partner: biotinylated heavy chain) [P56 9-mer … (SPOP F102C)] | 8.4% |  |  |  |
| LMAQRLLLR (here or on the partner: biotinylated heavy chain) [P97 9-mer … (FOXRED2-TXN2 fusion)] | 4.6% |  |  |  |
| YLRRQKRLK (here or on the partner: biotinylated heavy chain) [P60 9-mer … (FOXA1.p.F266L)] | 7.9% |  |  |  |
| IVWWCPMSR (here or on the partner: biotinylated heavy chain) [P98 9-mer … (TP53 R213D frameshift)] | 7.9% |  |  |  |
| CYLGRQKRF (here or on the partner: biotinylated heavy chain) [P61 9-mer … (FOXA1.p.R261G)] | 5.8% |  |  |  |
| IPVLTRWPL (here or on the partner: biotinylated heavy chain) [P19 9-mer … (TMEM222-LOC644061 fusion)] | 8.2% |  |  |  |
| LLERNSFEV (here or on the partner: biotinylated heavy chain) [P73 9-mer … (TP53 G266E)] | 89.2% |  |  |  |
| YQFTFDLLI (here or on the partner: biotinylated heavy chain) [P48 9-mer … (AR.p.H875Y)] | 99.3% |  |  |  |
| CPMSRLRLA (here or on the partner: biotinylated heavy chain) [P46 9-mer … (TP53 R213D frameshift)] | 14.4% |  |  |  |
| HVPKILSGK (here or on the partner: biotinylated heavy chain) [P58 9-mer … (AR Q903H)] | 11.8% |  |  |  |
| YCMAAPMGL (here or on the partner: biotinylated heavy chain) [P76 9-mer … (AR-V3)] | 85.9% |  |  |  |
| FLFLLLPLS (here or on the partner: biotinylated heavy chain) [P87 9-mer … (AR-Intron)] | 64% |  |  |  |
| RVGNCKHLK (here or on the partner: biotinylated heavy chain) [P82 9-mer … (AR-V7)] | 6.3% |  |  |  |
| QLIAMDSAI (here or on the partner: biotinylated heavy chain) [P22 9-mer … (SLC45A3-ELK4 fusion)] | 46.9% | 41.5% | 40% | 43.1% |

molecular target: HLA-A*24:02 (human); test: UV peptide exchange; HLA class I ELISA; details: remark: other sources report otherwise

| Binder | exchange rate with Pos | Average % | Exch I (%) | Exch II (%) |
| --- | --- | --- | --- | --- |
| RAKCKFSIL (here or on the partner: biotinylated heavy chain) [P56 9-mer … (SPOP F102C)] | 0.5% |  |  |  |
| LMAQRLLLR (here or on the partner: biotinylated heavy chain) [P97 9-mer … (FOXRED2-TXN2 fusion)] | 0.1% |  |  |  |
| RAVRRMNTF (here or on the partner: biotinylated heavy chain) [P17 9-mer … (MSMB-NOCA4 fusion)] | 0.1% |  |  |  |
| YLRRQKRLK (here or on the partner: biotinylated heavy chain) [P60 9-mer … (FOXA1.p.F266L)] | 0.9% |  |  |  |
| IVWWCPMSR (here or on the partner: biotinylated heavy chain) [P98 9-mer … (TP53 R213D frameshift)] | -0.1% |  |  |  |
| CYLGRQKRF (here or on the partner: biotinylated heavy chain) [P61 9-mer … (FOXA1.p.R261G)] | 90.3% |  |  |  |
| IPVLTRWPL (here or on the partner: biotinylated heavy chain) [P19 9-mer … (TMEM222-LOC644061 fusion)] | 0.1% |  |  |  |
| LLERNSFEV (here or on the partner: biotinylated heavy chain) [P73 9-mer … (TP53 G266E)] | 0.5% |  |  |  |
| YQFTFDLLI (here or on the partner: biotinylated heavy chain) [P48 9-mer … (AR.p.H875Y)] | 0.1% |  |  |  |
| CPMSRLRLA (here or on the partner: biotinylated heavy chain) [P46 9-mer … (TP53 R213D frameshift)] | -0.4% |  |  |  |
| HVPKILSGK (here or on the partner: biotinylated heavy chain) [P58 9-mer … (AR Q903H)] | 0.2% |  |  |  |
| YCMAAPMGL (here or on the partner: biotinylated heavy chain) [P76 9-mer … (AR-V3)] | -0.5% |  |  |  |
| FLFLLLPLS (here or on the partner: biotinylated heavy chain) [P87 9-mer … (AR-Intron)] | 0.2% |  |  |  |
| RVGNCKHLK (here or on the partner: biotinylated heavy chain) [P82 9-mer … (AR-V7)] | -0.1% |  |  |  |
| QLIAMDSAI (here or on the partner: biotinylated heavy chain) [P22 9-mer … (SLC45A3-ELK4 fusion)] | 0% | 4.5% | 4.8% | 4.1% |

molecular target: HLA-B*08:01 (human); test: UV peptide exchange; HLA class I ELISA; details: remark: other sources report otherwise

| Binder | exchange rate with Pos | Average % | Exch I (%) | Exch II (%) |
| --- | --- | --- | --- | --- |
| RAKCKFSIL (here or on the partner: biotinylated heavy chain) [P56 9-mer … (SPOP F102C)] | 38% |  |  |  |
| LMAQRLLLR (here or on the partner: biotinylated heavy chain) [P97 9-mer … (FOXRED2-TXN2 fusion)] | 2.7% |  |  |  |
| RAVRRMNTF (here or on the partner: biotinylated heavy chain) [P17 9-mer … (MSMB-NOCA4 fusion)] | 9% |  |  |  |
| YLRRQKRLK (here or on the partner: biotinylated heavy chain) [P60 9-mer … (FOXA1.p.F266L)] | 10.2% |  |  |  |
| IVWWCPMSR (here or on the partner: biotinylated heavy chain) [P98 9-mer … (TP53 R213D frameshift)] | 2.4% |  |  |  |
| CYLGRQKRF (here or on the partner: biotinylated heavy chain) [P61 9-mer … (FOXA1.p.R261G)] | 3.6% |  |  |  |
| IPVLTRWPL (here or on the partner: biotinylated heavy chain) [P19 9-mer … (TMEM222-LOC644061 fusion)] | 14.5% |  |  |  |
| LLERNSFEV (here or on the partner: biotinylated heavy chain) [P73 9-mer … (TP53 G266E)] | 2.6% |  |  |  |
| CPMSRLRLA (here or on the partner: biotinylated heavy chain) [P46 9-mer … (TP53 R213D frameshift)] | 14.5% |  |  |  |
| HVPKILSGK (here or on the partner: biotinylated heavy chain) [P58 9-mer … (AR Q903H)] | 5.3% |  |  |  |
| FLFLLLPLS (here or on the partner: biotinylated heavy chain) [P87 9-mer … (AR-Intron)] | 3.1% |  |  |  |
| RVGNCKHLK (here or on the partner: biotinylated heavy chain) [P82 9-mer … (AR-V7)] | 1.4% |  |  |  |
| QLIAMDSAI (here or on the partner: biotinylated heavy chain) [P22 9-mer … (SLC45A3-ELK4 fusion)] | 3.9% | 7.9% | 8% | 7.8% |

molecular target: HLA-B*07:02 (human); test: UV peptide exchange; HLA class I ELISA; details: remark: other sources report otherwise

| Binder | exchange rate with Pos | Average % | Exch I (%) | Exch II (%) |
| --- | --- | --- | --- | --- |
| RAKCKFSIL (here or on the partner: biotinylated heavy chain) [P56 9-mer … (SPOP F102C)] | 82.5% |  |  |  |
| LMAQRLLLR (here or on the partner: biotinylated heavy chain) [P97 9-mer … (FOXRED2-TXN2 fusion)] | 7% |  |  |  |
| RAVRRMNTF (here or on the partner: biotinylated heavy chain) [P17 9-mer … (MSMB-NOCA4 fusion)] | 38.7% |  |  |  |
| YLRRQKRLK (here or on the partner: biotinylated heavy chain) [P60 9-mer … (FOXA1.p.F266L)] | 6.1% |  |  |  |
| IVWWCPMSR (here or on the partner: biotinylated heavy chain) [P98 9-mer … (TP53 R213D frameshift)] | 6.7% |  |  |  |
| IPVLTRWPL (here or on the partner: biotinylated heavy chain) [P19 9-mer … (TMEM222-LOC644061 fusion)] | 91.3% |  |  |  |
| LLERNSFEV (here or on the partner: biotinylated heavy chain) [P73 9-mer … (TP53 G266E)] | 8.7% |  |  |  |
| YQFTFDLLI (here or on the partner: biotinylated heavy chain) [P48 9-mer … (AR.p.H875Y)] | 12.8% |  |  |  |
| LIYRRRLMK (modifications not checked) |  | 13.7% | 13% | 14.3% |
| CPMSRLRLA (here or on the partner: biotinylated heavy chain) [P46 9-mer … (TP53 R213D frameshift)] | 64.8% |  |  |  |
| YCMAAPMGL (here or on the partner: biotinylated heavy chain) [P76 9-mer … (AR-V3)] | 91.5% |  |  |  |
| FLFLLLPLS (here or on the partner: biotinylated heavy chain) [P87 9-mer … (AR-Intron)] | 5% |  |  |  |
| RVGNCKHLK (here or on the partner: biotinylated heavy chain) [P82 9-mer … (AR-V7)] | 12.9% |  |  |  |
| QLIAMDSAI (here or on the partner: biotinylated heavy chain) [P22 9-mer … (SLC45A3-ELK4 fusion)] | 8.3% | 12% | 12.2% | 11.8% |

molecular target: HLA-B*27:05 (human); test: UV peptide exchange; HLA class I ELISA; details: remark: other sources report otherwise

| Binder | Average % | Exch I (%) | Exch II (%) |
| --- | --- | --- | --- |
| QLIAMDSAI (here or on the partner: biotinylated heavy chain) [P22 9-mer … (SLC45A3-ELK4 fusion)] | 4.3% | 4.7% | 3.9% |

molecular target: HLA-A*03:01 (human); test: UV peptide exchange; HLA class I ELISA; details: remark: other sources report otherwise

| Binder | exchange rate with Pos |
| --- | --- |
| RAKCKFSIL (here or on the partner: biotinylated heavy chain) [P56 9-mer … (SPOP F102C)] | 6.8% |
| LMAQRLLLR (here or on the partner: biotinylated heavy chain) [P97 9-mer … (FOXRED2-TXN2 fusion)] | 39% |
| RAVRRMNTF (here or on the partner: biotinylated heavy chain) [P17 9-mer … (MSMB-NOCA4 fusion)] | 3.8% |
| YLRRQKRLK (here or on the partner: biotinylated heavy chain) [P60 9-mer … (FOXA1.p.F266L)] | 36.6% |
| IVWWCPMSR (here or on the partner: biotinylated heavy chain) [P98 9-mer … (TP53 R213D frameshift)] | 51.1% |
| IPVLTRWPL (here or on the partner: biotinylated heavy chain) [P19 9-mer … (TMEM222-LOC644061 fusion)] | 4.1% |
| LLERNSFEV (here or on the partner: biotinylated heavy chain) [P73 9-mer … (TP53 G266E)] | 3.5% |
| YQFTFDLLI (here or on the partner: biotinylated heavy chain) [P48 9-mer … (AR.p.H875Y)] | 4.4% |
| CPMSRLRLA (here or on the partner: biotinylated heavy chain) [P46 9-mer … (TP53 R213D frameshift)] | 10.3% |
| HVPKILSGK (here or on the partner: biotinylated heavy chain) [P58 9-mer … (AR Q903H)] | 32.5% |
| YCMAAPMGL (here or on the partner: biotinylated heavy chain) [P76 9-mer … (AR-V3)] | 6% |
| FLFLLLPLS (here or on the partner: biotinylated heavy chain) [P87 9-mer … (AR-Intron)] | 2.4% |
| RVGNCKHLK (here or on the partner: biotinylated heavy chain) [P82 9-mer … (AR-V7)] | 58.1% |
| QLIAMDSAI (here or on the partner: biotinylated heavy chain) [P22 9-mer … (SLC45A3-ELK4 fusion)] | 4.8% |

molecular target: HLA-A*01:01 (human); test: UV peptide exchange; HLA class I ELISA; details: remark: other sources report otherwise

| Binder | exchange rate with Pos | Average % | Exch I (%) | Exch II (%) |
| --- | --- | --- | --- | --- |
| RAKCKFSIL (here or on the partner: biotinylated heavy chain) [P56 9-mer … (SPOP F102C)] | 2.6% |  |  |  |
| LMAQRLLLR (here or on the partner: biotinylated heavy chain) [P97 9-mer … (FOXRED2-TXN2 fusion)] | 2.5% |  |  |  |
| RAVRRMNTF (here or on the partner: biotinylated heavy chain) [P17 9-mer … (MSMB-NOCA4 fusion)] | 4.9% |  |  |  |
| YLRRQKRLK (here or on the partner: biotinylated heavy chain) [P60 9-mer … (FOXA1.p.F266L)] | 3.1% |  |  |  |
| IVWWCPMSR (here or on the partner: biotinylated heavy chain) [P98 9-mer … (TP53 R213D frameshift)] | 2.5% |  |  |  |
| NPKASLLSL (modifications not checked) |  | 6.5% | 7.4% | 5.6% |
| CYLGRQKRF (here or on the partner: biotinylated heavy chain) [P61 9-mer … (FOXA1.p.R261G)] | 1.7% |  |  |  |
| IPVLTRWPL (here or on the partner: biotinylated heavy chain) [P19 9-mer … (TMEM222-LOC644061 fusion)] | 5.2% |  |  |  |
| YQFTFDLLI (here or on the partner: biotinylated heavy chain) [P48 9-mer … (AR.p.H875Y)] | 4.3% |  |  |  |
| CPMSRLRLA (here or on the partner: biotinylated heavy chain) [P46 9-mer … (TP53 R213D frameshift)] | 2.4% |  |  |  |
| HVPKILSGK (here or on the partner: biotinylated heavy chain) [P58 9-mer … (AR Q903H)] | 2.5% |  |  |  |
| YCMAAPMGL (here or on the partner: biotinylated heavy chain) [P76 9-mer … (AR-V3)] | 0.1% |  |  |  |
| FLFLLLPLS (here or on the partner: biotinylated heavy chain) [P87 9-mer … (AR-Intron)] | 1.1% |  |  |  |
| RVGNCKHLK (here or on the partner: biotinylated heavy chain) [P82 9-mer … (AR-V7)] | 1.5% |  |  |  |
| QLIAMDSAI (here or on the partner: biotinylated heavy chain) [P22 9-mer … (SLC45A3-ELK4 fusion)] | 4.4% | 5% | 5% | 4.9% |
